From patent publication US20210355194A1 (TWIST BIOSCIENCE, published 2021)
Residue numbers refer to the chain shown, from its start. Like-named read-outs stand apart in the source and are kept apart here.

Tests used:
[1] = biological target: T1, SARS-COV2-S1 RBD (mouse IgG2Fc tag) (SARS-CoV-2, UniProt P0DTC2 319-537); test: column not explained; likely FACS, S1 RBD on Vero E6
[2] = biological target: T1, SARS-COV2-S1 RBD (mouse IgG2Fc tag); test: FACS, blocks S1 RBD-mFc binding to ACE2 on Vero E6
[3] = biological target: T2, Acro SARS-CoV-2 (COVID-19) S1 protein (SARS-CoV-2, UniProt P0DTC2 16-685); test: SPR
T2 construct: also called SARS-CoV-2 S1

[4] = biological target: T1, SARS-COV2-S1 RBD (mouse IgG2Fc tag)
[5] = biological target: SARS-CoV-2 spike on live SARS-CoV-2 virus (SARS-CoV-2, UniProt P0DTC2 14-1273); test: cell-based or functional assay
[6] = biological target: human ACE2 (human, UniProt Q9BYF1 18-740)
[7] = biological target: SARS-COV2-S1 RBD (mouse IgG2Fc tag) (SARS-CoV-2, UniProt P0DTC2 319-537); test: FACS, S1 RBD-mFc on Vero E6 (ACE2)
[8] = biological target: T3, Acro SARS-CoV-2 (COVID-19) S1 protein (SARS-CoV-2, UniProt P0DTC2 16-685); test: SPR; remark: listed apart in the source
T3 construct: also called SARS-CoV-2 S1

[9] = biological target: T4, COVID S1 RBM Fc fusion (Antigen 2) (SARS-CoV-2, UniProt P0DTC2 437-508); test: phage ELISA
T4 construct: domain: S1 RBM

[10] = biological target: T5, COVID S1 RBD Fc fusion (Antigen 1) (SARS-CoV-2, UniProt P0DTC2 319-541); test: phage ELISA
T5 construct: domain: S1 RBD

[11] = biological target: T6, S1-Fc (SARS-CoV-2, UniProt P0DTC2 14-685); test: phage ELISA
T6 construct: also called S1 Fc fusion protein

[12] = biological target: SARS-CoV-2 S1 (subunit 1) protein (SARS-CoV-2, UniProt P0DTC2 16-685); test: phage ELISA

Chain of human ACE2 (Q9BYF1 18-740 limits assumed): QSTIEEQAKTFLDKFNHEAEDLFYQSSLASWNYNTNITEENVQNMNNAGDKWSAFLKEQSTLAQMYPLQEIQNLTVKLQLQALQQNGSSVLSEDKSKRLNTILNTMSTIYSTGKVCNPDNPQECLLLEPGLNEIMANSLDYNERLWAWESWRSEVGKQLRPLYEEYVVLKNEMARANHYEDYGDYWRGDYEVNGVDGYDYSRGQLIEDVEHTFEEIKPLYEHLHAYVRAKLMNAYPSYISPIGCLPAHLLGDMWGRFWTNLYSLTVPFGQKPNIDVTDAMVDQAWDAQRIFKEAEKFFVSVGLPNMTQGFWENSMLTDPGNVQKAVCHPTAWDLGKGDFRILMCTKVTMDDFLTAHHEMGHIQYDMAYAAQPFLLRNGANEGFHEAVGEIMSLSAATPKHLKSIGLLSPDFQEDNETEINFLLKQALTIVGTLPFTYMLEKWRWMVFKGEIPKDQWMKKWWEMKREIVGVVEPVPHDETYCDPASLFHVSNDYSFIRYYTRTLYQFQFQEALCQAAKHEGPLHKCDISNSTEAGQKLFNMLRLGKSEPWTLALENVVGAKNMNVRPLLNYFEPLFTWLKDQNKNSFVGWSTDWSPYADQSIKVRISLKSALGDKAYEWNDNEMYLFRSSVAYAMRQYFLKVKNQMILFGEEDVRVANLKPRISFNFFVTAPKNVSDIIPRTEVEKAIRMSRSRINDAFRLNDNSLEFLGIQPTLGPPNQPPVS

B1: variant 6-73 (Fc fusion)
VHH: EVQLVESGGGLVQPGGSLRLSCAASGHTFSGYAMGWFRQAPGKEREFVAVITREGSTYYADSVKGRFTISADNSKNTAYLQMNSLKPEDTAVYYCARLGGEGFDYWGQGTLVTVSS
With B1 the “MFI Fold Decrease” value [1] was 7.99 fold, the IC50 [2] was 1.01 nM and the Kd [3] was 103 nM.

B2: variant 5-15 (Fc fusion)
VHH: EVQLVESGGGLVQPGGSLRLSCAASGFTFDGAAMGWFRQAPGKEREFVATIRWTNSTDYADSVKGRFTISADNSKNTAYLQMNSLKPEDTAVYYCARGRYGIVERWGQGTLVTVSS
Work on B2 yielded an IC50 [4] of 2.19 nM.

B3: variant 5-49 (Fc fusion)
VHH: EVQLVESGGGLVQPGGSLRLSCAASGRTSTVNGMGWFRQAPGKEREFVASISQSGAATAYADSVKGRFTISADNSKNTAYLQMNSLKPEDTAVYYCAADRTYSYSSTGYYWGQGTLVTVSS
Work on B3 yielded an IC50 [4] of 5.61 nM.

B4: variant 5-60 (Fc fusion)
VHH: EVQLVESGGGLVQPGGSLRLSCAASGRSFSSHRMGWFRQAPGKEREFVAAIMWSGSHRNYADSVKGRFTISADNSKNTAYLQMNSLKPEDTAVYYCAAIAYEEGVYRWDWGQGTLVTVSS
B4 showed a Kd [3] of 29.4 nM and an IC50 [4] of 2.15 nM.

B5: variant 5-29 (Fc fusion)
VHH: EVQLVESGGGLVQPGGSLRLSCAASGFTFDDYPMGWFRQAPGKEREGVASVLRGGYTWYADSVKGRFTISADNSKNTAYLQMNSLKPEDTAVYYCAKDWATGLAWGQGTLVTVSS
With B5 the IC50 [4] was 2.19 nM.

B6: variant 5-47 (Fc fusion)
VHH: EVQLVESGGGLVQPGGSLRLSCAASGFTFGSYDMGWFRQAPGKEREFVTAINWSGARTAYADSVKGRFTISADNSKNTAYLQMNSLKPEDTAVYYCAARSVYSYEYNWGQGTLVTVSS
In the case of B6, the “EC80” value [5] is reported as 2.46 µg/mL, the Kd [3] is reported as 27.7 nM and the IC50 [4] is reported as 0.8 nM.

B7: 4-52 (VHH)
VHH: EVQLVESGGGLVQPGGSLRLSCAASGRSFSNSVMGWFRQAPGKEREFVARITWNGGSTYYADSVKGRFTISADNSKNTAYLQMNSLKPEDTAVYYCATTENPNPRWGQGTLVTVSS
With B7 the IC50 [6] was 0.35 nM.

B8: variant 5-55 (Fc fusion)
VHH: EVQLVESGGGLVQPGGSLRLSCAASGIDVNRNAMGWFRQAPGKEREFVAAITWSGGWRYYADSVKGRFTISADNSKNTAYLQMNSLKPEDTAVYYCATTFGDAGIPDQYDFGWGQGTLVTVSS
B8 gave an IC50 [4] of 1.45 nM.

B9: variant 6-60 (Fc fusion)
VHH: EVQLVESGGGLVQPGGSLRLSCAASGDTYGSYWMGWFRQAPGKEREFVATISQSGAATAYADSVKGRFTISADNSKNTAYLQMNSLKPEDTAVYYCAGLLRYSGTYYDAFDVWGQGTLVTVSS
With B9 the “MFI Fold Decrease” value [1] was 12.6 fold, the IC50 [2] was 1.31 nM and the Kd [3] was 20.1 nM.

B10: variant 6-78 (Fc fusion)
VHH: EVQLVESGGGLVQPGGSLRLSCAASGRTYDAMGWFRQAPGKEREFVASVTSGGYTHYADSVKGRFTISADNSKNTAYLQMNSLKPEDTAVYYCAKFGRKIVGATELDYWGQGTLVTVSS
notes: VHH-Fc
With B10 the “Competition Factor” value [7] was 9.27 and the Kd [8] was 18.9 nM.

B11: variant 6-78 (Fc fusion)
VHH: B10 VHH
B11 was tested, and the “MFI Fold Decrease” value [1] was 9.27 fold, the IC50 [2] was 0.743 nM and the Kd [3] was 18.9 nM.

B12: variant 6-26 (Fc fusion)
VHH: EVQLVESGGGLVQPGGSLRLSCAASGDTFSTSWMGWFRQAPGKEREFVATINTGGGTNYADSVKGRFTISADNSKNTAYLQMNSLKPEDTAVYYCARVTTSFDYWGQGTLVTVSS
For B12, the “MFI Fold Decrease” value [1] was 6.41 fold, the IC50 [2] was 1.07 nM and the Kd [3] was 38.7 nM.

B13: variant 6-76 (Fc fusion)
VHH: EVQLVESGGGLVQPGGSLRLSCAASGLAFDFDGMGWFRQAPGKEREGVAAINSGGSTYYADSVKGRFTISADNSKNTAYLQMNSLKPEDTAVYYCARFFRAHDYWGQGTLVTVSS
For B13, the “MFI Fold Decrease” value [1] was 9.96 fold, the IC50 [2] was 1.11 nM and the Kd [3] was 33.5 nM.

B14: 4-49 (VHH)
VHH: EVQLVESGGGLVQPGGSLRLSCAASGRTFGDYIMGWFRQAPGKERESVAAINWSAGYTAYADSVKGRFTISADNSKNTAYLQMNSLKPEDTAVYYCARASPNTGWHFDHWGQGTLVTVSS
For B14, the IC50 [6] was 58 nM.

B15: variant 5-67 (Fc fusion)
VHH: EVQLVESGGGLVQPGGSLRLSCAASGFNVNDYAMGWFRQAPGKEREFVAGITSSVGVTNYADSVKGRFTISADNSKNTAYLQMNSLKPEDTAVYYCAADIFFVNWGRGTLVTVSS
B15 was tested, and the “EC80” value [5] was 1.57 µg/mL, the Kd [3] was 22.1 nM and the IC50 [4] was 0.76 nM.

B16: 4-121 (VHH)
VHH: EVQLVESGGGLVQPGGSLRLSCAASGTAASFNPMGWFRQAPGKEREFVAAITSGGSTNYADSVKGRFTISADNSKNTAYLQMNSLKPEDTAVYYCAAIAYEEGVYRWDWGQGTLVTVSS
With B16 the IC50 [6] was 0.91 nM.

B17: variant 6-20 (Fc fusion)
VHH: EVQLVESGGGLVQPGGSLRLSCAASGSTLPYHAMGWFRQAPGKEREFVAAITWNGASTSYADSVKGRFTISADNSKNTAYLQMNSLKPEDTAVYYCARDRYYDTSASYFESETWGQGTLVTVSS
With B17 the “MFI Fold Decrease” value [1] was 9.95 fold, the IC50 [2] was 0.76 nM and the Kd [3] was 20.9 nM.

B18: variant 2-4 (antibody, V domains shown)
VH: EVQLLESGGGLVQPGGSLRLSCAASGFTFSDFAMAWVRQAPGKGLEWVSAISGSGDITYYADSVKGRFTISRDNSKNTLYLQMNSLRAEDTAVYYCAREADGLHSPWHFDLWGQGTLVTVSS
VL: DIQMTQSPSSLSASVGDRVTITCRASQSIDTYLNWYQQKPGKAPKLLIYAASALASGVPSRFSGSGSGTDFTLTISSLQPEDFATYYCQQSYSAPPYTFGQGTKVEIK
For B18, the “specificity ELISA, fold over background” value [9] was 1.2 fold over background, the “specificity ELISA, percent binding relative to Acro S1” value [9] was 3.1% and the “specificity ELISA, fold over background” value [10] was 38.8 fold over background. For the same binder, the “specificity ELISA, percent binding relative to Acro S1” value [10] was 103%, the “specificity ELISA, fold over background” value [11] was 7.2 fold over background and the “specificity ELISA, percent binding relative to Acro S1” value [11] was 19%. The “screening ELISA (Avg), fold over background” value [12] was 15.5 fold over background.

B19: variant 2-5 (antibody, V domains shown)
VH: B18 VH
VL: B18 VL with D30H
For B19, the “specificity ELISA, fold over background” value [9] was 1.1 fold over background, the “specificity ELISA, percent binding relative to Acro S1” value [9] was 3% and the “specificity ELISA, fold over background” value [10] was 35.9 fold over background. The “specificity ELISA, percent binding relative to Acro S1” value [10] was 93.7%, the “specificity ELISA, fold over background” value [11] was 24.3 fold over background and the “specificity ELISA, percent binding relative to Acro S1” value [11] was 63.3%. For the same binder, the “screening ELISA (Avg), fold over background” value [12] was 30.8 fold over background.

B20: variant 6-55 (Fc fusion)
VHH: EVQLVESGGGLVQPGGSLRLSCAASGFTMSSSWMGWFRQAPGKEREFVARITSGGSTGYADSVKGRFTISADNSKNTAYLQMNSLKPEDTAVYYCASVDGYFDYWGQGTLVTVSS
For B20, the “MFI Fold Decrease” value [1] was 7.98 fold, the IC50 [2] was 0.97 nM and the Kd [3] was 25.2 nM.

B21: variant 5-56 (Fc fusion)
VHH: EVQLVESGGGLVQPGGSLRLSCAASGRTFSSNMGWFRQAPGKEREFVARIFGGDRTLYADSVKGRFTISADNSKNTAYLQMNSLKPEDTAVYYCADINGDWGQGTLVTVSS
In the case of B21, the “EC80” value [5] is reported as 105 µg/mL, the Kd [3] is reported as 54.3 nM and the IC50 [4] is reported as 0.68 nM.
